{"source": "patent US20100331246A1", "about": "(INDIANA UNIVERSITY RESEARCH AND TECHNOLOGY, published 2010)", "assay_in_all_cases": "cell-based or functional assay", "key": {"glucagon receptor": {"biological_target": "glucagon receptor (UniProt P47871 26-477)"}, "GLP-1 receptor [1]": {"biological_target": "GLP-1 receptor (UniProt P43220 24-463, limits assumed)"}, "GLP-1 receptor [2]": {"biological_target": "GLP-1 receptor (UniProt P43220)", "sequence (P43220 24-463 limits assumed)": "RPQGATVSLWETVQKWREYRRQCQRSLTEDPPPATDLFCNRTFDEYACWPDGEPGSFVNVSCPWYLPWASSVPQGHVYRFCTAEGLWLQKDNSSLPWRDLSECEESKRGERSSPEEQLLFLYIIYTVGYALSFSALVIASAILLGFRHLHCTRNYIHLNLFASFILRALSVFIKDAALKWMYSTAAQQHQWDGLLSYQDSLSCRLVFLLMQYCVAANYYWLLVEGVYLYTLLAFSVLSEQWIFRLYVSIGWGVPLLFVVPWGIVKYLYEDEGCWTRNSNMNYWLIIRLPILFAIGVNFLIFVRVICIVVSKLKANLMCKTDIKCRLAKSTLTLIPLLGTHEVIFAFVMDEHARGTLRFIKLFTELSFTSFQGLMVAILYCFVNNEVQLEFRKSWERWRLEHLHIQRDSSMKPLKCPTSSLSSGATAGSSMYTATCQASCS"}}, "note": "Like-named read-outs stand apart in the source and are kept apart here.", "data": [{"substance": "[PLA6, D9, E16, E24K28(lactam), D28]G(6~29) (peptide)", "values": [{"measurement": "Glucagon IC50", "setting": "glucagon receptor", "value": 22, "unit": "nM"}, {"measurement": "GLP-1 EC50", "setting": "GLP-1 receptor [1]", "value": 289, "unit": "nM"}]}, {"substance": "HO-F5dV6-O-F7,GLP(8-36)-CEX (peptide)", "values": [{"measurement": "% potency with respect to parent", "setting": "GLP-1 receptor [1]", "value": 7, "unit": "%"}]}, {"substance": "HO-F^5F^6-O-F^7,GLP(8-36)-CEX (peptide)", "values": [{"measurement": "% potency with respect to parent", "setting": "GLP-1 receptor [2]", "value": 3.6, "unit": "%"}, {"measurement": "% potency with respect to parent, before incubation", "setting": "GLP-1 receptor [2]", "value": 3.7, "unit": "%"}, {"measurement": "% potency with respect to parent, prodrug incubated in PBS for 24 hrs", "setting": "GLP-1 receptor [2]", "value": 17.2, "unit": "%"}]}, {"substance": "[A2E3, E16K20(Lactam), D28]G(1~29) (peptide)", "values": [{"measurement": "Glucagon IC50", "setting": "glucagon receptor", "value": 130, "unit": "nM"}, {"measurement": "GLP-1 EC50", "setting": "GLP-1 receptor [1]", "value": 0.2, "unit": "nM"}]}, {"substance": "(H7F),(E9Q),GLP(8-36)-CEX (peptide)", "values": [{"measurement": "% potency with respect to GLP-1", "setting": "GLP-1 receptor [2]", "value": 33.3, "unit": "%"}]}, {"substance": "G^5V^6-O-F^7,GLP(8-36)CEX (peptide)", "values": [{"measurement": "% potency with respect to parent", "setting": "GLP-1 receptor [2]", "value": 12, "unit": "%"}, {"measurement": "% potency with respect to parent, before incubation", "setting": "GLP-1 receptor [2]", "value": 10.9, "unit": "%"}, {"measurement": "% potency with respect to parent, prodrug incubated in PBS for 24 hrs", "setting": "GLP-1 receptor [2]", "value": 46, "unit": "%"}, {"measurement": "% potency with respect to parent, prodrug incubated in PBS for 168 hrs", "setting": "GLP-1 receptor [2]", "value": 95.8, "unit": "%"}]}, {"substance": "[PLA6, D9, K12E16(Lactam), D28]G(6-29) (peptide)", "values": [{"measurement": "Glucagon IC50", "setting": "glucagon receptor", "value": 63, "unit": "nM"}, {"measurement": "Glucagon IC50", "setting": "glucagon receptor; record 2", "value": 13, "unit": "nM"}, {"measurement": "GLP-1 EC50", "setting": "GLP-1 receptor [1]", "value": 177, "unit": "nM"}, {"measurement": "GLP-1 EC50", "setting": "GLP-1 receptor [1]; record 2", "value": 21, "unit": "nM"}]}, {"substance": "F^5V^6-O-F^7,GLP(8-36)-CEX (peptide)", "values": [{"measurement": "% potency with respect to parent", "setting": "GLP-1 receptor [2]", "value": 1.3, "unit": "%"}]}, {"substance": "[E9, E16K20(lactam), D28]G(4~29) (peptide)", "values": [{"measurement": "Glucagon IC50", "setting": "glucagon receptor", "value": "10 to 30", "unit": "nM"}, {"measurement": "GLP-1 EC50", "setting": "GLP-1 receptor [1]", "value": 151, "unit": "nM"}]}, {"substance": "[PLA6, D9, E16, K20E24(Lactam), D28]G(6-29) (peptide)", "values": [{"measurement": "Glucagon IC50", "setting": "glucagon receptor", "value": 74, "unit": "nM"}, {"measurement": "GLP-1 EC50", "setting": "GLP-1 receptor [1]", "value": 239, "unit": "nM"}]}, {"substance": "[A2E3, E16K20(Lactam), D28]G(2~29) (peptide)", "values": [{"measurement": "Glucagon IC50", "setting": "glucagon receptor", "value": 63, "unit": "nM"}]}, {"substance": "[PLA6, D9, E16K20(lactam), D28]G(6-29) (peptide)", "values": [{"measurement": "Glucagon IC50", "setting": "glucagon receptor", "value": "10 to 30", "unit": "nM"}, {"measurement": "Glucagon IC50", "setting": "glucagon receptor; record 2", "value": 6, "unit": "nM"}, {"measurement": "GLP-1 EC50", "setting": "GLP-1 receptor [1]", "value": "5 to 25", "unit": "nM"}, {"measurement": "GLP-1 EC50", "setting": "GLP-1 receptor [1]; record 2", "value": 4, "unit": "nM"}]}]}
